In patent US9828628:

Experiments:
[1] = target: HIV-1 gp41 epitope peptide with linker, conjugated to 17-base DNA (peptide-linker-DNA) and hybridized to the modular oligonucleotide probe (HIV-1); assay: fluorescent modular DNA probe with two gp41 peptide copies, titrated with antibody; two-state fit
[2] = target: HIV-1 gp41 epitope peptide with linker, conjugated to 17-base DNA (peptide-linker-DNA) and hybridized to the modular oligonucleotide probe (HIV-1); assay: electrochemical modular probe (methylene blue, square wave voltammetry) on a gold electrode, antibody titration in 80% whole blood [panel c (lower]

Substance: antibody 2F5 specific for gp41 (Polymun Scientific)
- Kd [1]: 4 nM
- Kd [2]: 33 nM
